Reference: the supplement of paper PMC10201428
± gives the standard deviation of the averaged measurements.

B1: library; a variant is named by its letters at N, in order (parent)
chain: AATGTTGTTGATGCAACCATAAAGTGATATTTAATAATTATTTATAATCAGCAACTTAACCACAAAACAACCATATATTGATATNTCACAAAACAACCATAANTTGATATTTTTGTGAATCGAGTATTTCAGCAAAACTACTGCAGTAAGAA

Legend:
[1] = variants of: B1; experiment: relative integration efficiency (T-LR orientation) vs wild-type transposon end (log2 (normalized fold change)); transposon end mutated: left end; higher = more efficient transposition; conditions: with VchCAST RNA-guided transposition machinery (E. coli BL21(DE3) host, lacZ target)
In short: (§1)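 Pools of 1549 left-end or 1849 right-end barcoded transposon variants were cloned into a pUC57 mini-transposon donor and co-transformed into E. coli BL21(DE3) with a T7-driven effector plasmid carrying a CRISPR array, tniQ-cas8-cas7-cas6 and tnsA-tnsB-tnsC. Plating used 0.1 mM IPTG at 37°C for 18 h, and input plasmids and genomic integration junctions were PCR-amplified for Illumina sequencing, with two biological output replicates and four reference barcodes. Relative integration efficiency is the log-transformed fold change of output over input barcode abundance, normalised to the reference barcodes.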

[2] = variants of: B1; experiment: relative integration efficiency (T-RL orientation) vs wild-type transposon end (log2 (normalized fold change)); transposon end mutated: left end; higher = more efficient transposition; conditions: with VchCAST RNA-guided transposition machinery (E. coli BL21(DE3) host, lacZ target)
In short: as §1

| Variant | relative integration efficiency (log2) [1] | relative integration efficiency (log2) [2] |
| --- | --- | --- |
| CG C89T | 0.203 ± 0.062 | -0.158 ± 0.031 |
| CG C89A | 0.447 ± 0.3 | 0.031 ± 0.013 |
| CG C89G | 0.0739 ± 0.015 | -0.315 ± 0.029 |
| CG A119G | 0.273 ± 0.044 | 0.0234 ± 0.071 |
| CG A119C | 0.11 ± 0.18 | -0.107 ± 0.1 |
| CG A119T | 0.893 ± 0.42 | 0.51 ± 0.29 |
| CG C71T | -0.49 ± 0.49 | -0.408 ± 0.23 |
| CG C71G | -0.452 ± 0.8 | -0.253 ± 0.4 |
| CG C71A | -0.709 ± 0.022 | -0.461 ± 0.26 |
| CG A102G | -1.58 ± 1.1 | -0.825 ± 0.55 |
| CG A102T | 0.323 ± 0.19 | -0.123 ± 0.24 |
| CG A102C | -1.3 ± 0.53 | -1.12 ± 0.46 |
| CG G13A T30A T31C T32A A77C T86G | -0.338 ± 0.55 | -0.517 ± 0.16 |
| CG A107C | -0.569 ± 1.1 | -0.425 ± 0.35 |
| CG A107G | -0.592 ± 0.8 | -0.554 ± 0.26 |
| CG A107T | -0.794 ± 0.79 | -0.795 ± 0.44 |
| CG C18A A19C | -1.46 ± 0.83 | -1.68 ± 0.79 |
| CG A95C A96C | -0.693 ± 0.86 | -0.385 ± 0.4 |
| CG C68A A69C A70C C71A | -1.37 ± 0.95 | -1.67 ± 0.63 |
| CG C87G A88T | 0.294 ± 0.33 | 0.11 ± 0.21 |
| CG C89G A90T A91T A92T | -0.0713 ± 0.9 | -0.00767 ± 0.14 |
| CG C52G A53T | 0.253 ± 0.28 | 0.138 ± 0.048 |
| CG G10T A11C T12G G13T | -4.3 ± 0.89 | -1.43 ± 0.49 |

| Variant | relative integration efficiency (log2) [1] | relative integration efficiency (log2) [2] |
| --- | --- | --- |
| CG C71G C72G A73T T74A | -1.87 ± 0.61 | -2.18 ± 0.97 |
| CG G4T T5G T6G G7T | < -10 | -6.583 ± 0.046 |
| CG C98A A99C | -1.94 ± 1 | -1.73 ± 0.54 |
| CG A93C C94A | -0.406 ± 0.83 | -0.522 ± 0.41 |
| CG C14A C68A C94A | -1.29 ± 1.1 | -0.864 ± 0.51 |
| CG C18A A19C T20G A21C | -2.8 ± 0.18 | -3.18 ± 0.65 |
| CG C17A | 0.131 ± 0.49 | 0.0401 ± 0.23 |
| CG C17G | 0.155 ± 0.37 | -0.344 ± 0.25 |
| CG C17T | -0.0678 ± 0.41 | -0.0235 ± 0.16 |
| CG C49A A50C G51T C52A | -1.02 ± 1.1 | -0.71 ± 0.6 |
| CG G10T A11C | -2.92 ± 0.037 | -1.58 ± 0.41 |
| CG G7C T8A T9A G10C | < -10 | -6.612 ± 0.065 |
| CG C18G C72G C98G | -0.915 ± 0.23 | -0.987 ± 0.56 |
| CG C14G A15T A16T C17G | -1.31 ± 0.38 | -1.26 ± 0.49 |
| CG C61A A62C C63A A64C | -0.0245 ± 0.0054 | 0.137 ± 0.14 |
| CG C55G | 0.245 ± 0.15 | 0.177 ± 0.069 |
| CG C55A | -0.0412 ± 0.7 | 0.0708 ± 0.088 |
| CG C55T | 0.102 ± 0.26 | -0.123 ± 0.13 |
| CG C52G A53T A54T C55G | 0.133 ± 0.24 | 0.0283 ± 0.2 |
| CG G10A | -0.534 ± 0.039 | -0.083 ± 0.089 |
| CG G10C | -1.66 ± 0.034 | -0.357 ± 0.19 |
| CG G10T | -1.38 ± 0.3 | -0.454 ± 0.26 |
| CG C87A A88C C89A A90C | 0.382 ± 0.34 | 0.292 ± 0.29 |

| Variant | relative integration efficiency (log2) [1] | relative integration efficiency (log2) [2] |
| --- | --- | --- |
| CG C61G A62T C63G A64T | 0.0811 ± 0.61 | -0.0813 ± 0.26 |
| CG G13T C14A | -1.46 ± 1.2 | -0.416 ± 0.31 |
| CG C63A A64C A65C A66C | -0.236 ± 0.15 | -0.189 ± 0.012 |
| CG A93T | -0.975 ± 0.63 | -0.479 ± 0.33 |
| CG A93G | -0.13 ± 0.37 | -0.207 ± 0.083 |
| CG A93C | -0.0609 ± 0.5 | -0.288 ± 0.19 |
| CG A99C T100G A101C A102C | -1.07 ± 1.4 | -1.82 ± 0.89 |
| CG A95C A96C C97A C98A | -1.32 ± 1.8 | -2.14 ± 0.8 |
| CG C49A A50T C52T T56C T57A C60A C61G A62T C63A | -3.63 ± 0.43 | -5.28 ± 0.94 |
| TG G24A T30A A70C T76A T86G | 1.23 ± 0.52 | 0.692 ± 0.36 |
| CG C14G C68G C94G | -2.2 ± 0.43 | -2.49 ± 1.3 |
| CG A92T | 0.606 ± 0.37 | -0.0452 ± 0.064 |
| CG A92G | -0.495 ± 0.53 | -0.563 ± 0.18 |
| CG A92C | -0.321 ± 0.19 | -0.313 ± 0.19 |
| CG C49A A50C | -0.934 ± 0.45 | -0.598 ± 0.47 |
| CG A118C A119C | 0.178 ± 0.4 | -0.00591 ± 0.078 |
| CG A96C C97A C98A A99C | -1.79 ± 0.72 | -2.25 ± 0.85 |
| CG C89A A90C | 0.0275 ± 0.49 | -0.181 ± 0.15 |
| CG A93C C94A A95C A96C | -0.979 ± 1.9 | -1.09 ± 0.56 |
| CG A95T A96T C97G C98G | -1.79 ± 0.29 | -1.94 ± 0.81 |
| CG A92T A93T C94G A95T | -3.64 ± 1.2 | -1.61 ± 0.83 |
| CG C89G A90T | 0.739 ± 0.17 | 0.378 ± 0.24 |
| CG C18A C72A C98A | -1.73 ± 0.24 | -1.91 ± 0.81 |

| Variant | relative integration efficiency (log2) [1] | relative integration efficiency (log2) [2] |
| --- | --- | --- |
| CG C94G A95T | -2.11 ± 0.65 | -1.23 ± 0.53 |
| CG C94G A95T A96T C97G | -1.95 ± 1.2 | -0.731 ± 1 |
| CG C87G A88T C89G A90T | 0.251 ± 0.48 | -0.077 ± 0.18 |
| CG A99T T100A A101T A102T | -0.997 ± 0.78 | -1.06 ± 0.48 |
| CG A96T C97G | -0.64 ± 0.43 | -0.723 ± 0.29 |
| CG C63G A64T A65T A66T | 0.34 ± 0.24 | 0.217 ± 0.0048 |
| CG C87A A88C | 0.256 ± 0.18 | -0.00605 ± 0.14 |
| CG C87A | -0.42 ± 0.76 | -0.276 ± 0.053 |
| CG C87T | -0.29 ± 0.12 | -0.0232 ± 0.071 |
| CG C87G | 0.0991 ± 0.48 | -0.138 ± 0.019 |
| CG C17A C71A C97A | -0.871 ± 0.35 | -1.21 ± 0.59 |
| CG C14A | -0.739 ± 0.55 | -0.546 ± 0.32 |
| CG C14T | 0.167 ± 0.37 | -0.295 ± 0.18 |
| CG C14G | -0.527 ± 0.35 | -0.0895 ± 0.33 |
| CG C94A A95C A96C C97A | -1.9 ± 0.51 | -1.87 ± 0.78 |
| CG C52A A53C | 0.0739 ± 0.63 | -0.177 ± 0.1 |
| CG C17G C71G C97G | -1.57 ± 1 | -1.28 ± 0.76 |
| CG A93T C94G A95T A96T | -2.14 ± 0.41 | -1.82 ± 0.58 |
| CG C52A | 0.484 ± 0.55 | 0.279 ± 0.017 |
| CG C52G | 0.484 ± 0.31 | -0.00219 ± 0.15 |
| CG C52T | 0.154 ± 0.19 | 0.201 ± 0.14 |
| CG A96C C97A | -2 ± 1 | -1.33 ± 0.57 |
| CG A107T T108A A109T T110A | -0.765 ± 0.3 | -0.783 ± 0.46 |

| Variant | relative integration efficiency (log2) [1] | relative integration efficiency (log2) [2] |
| --- | --- | --- |
| CG A99C T100G | -1.66 ± 1.1 | -1.87 ± 0.76 |
| CG C68A | -0.255 ± 0.47 | -0.433 ± 0.32 |
| CG C68T | -1.08 ± 0.81 | -0.627 ± 0.41 |
| CG C68G | -0.736 ± 0.69 | -0.831 ± 0.36 |
| CG C71A C72A | -1.63 ± 1.1 | -1.05 ± 0.77 |
| CG C17A C18A | -1.03 ± 1 | -1.15 ± 0.71 |
| CG C89A A90C A91C A92C | -0.143 ± 0.65 | -0.537 ± 0.37 |
| CG A99T | -1.41 ± 0.62 | -0.877 ± 0.54 |
| CG A99G | -0.0966 ± 0.58 | -0.278 ± 0.18 |
| CG A99C | -1.01 ± 0.78 | -1.23 ± 0.65 |
| CG C121A A123G G124A T129C G132A A134C A135T A136T A137C C138A C141G G143T C144T | 0.708 ± 0.024 | 0.721 ± 0.23 |
| CG C94T | -0.715 ± 0.59 | -0.669 ± 0.41 |
| CG C94G | -1.16 ± 0.81 | -0.958 ± 0.57 |
| CG C94A | -0.54 ± 0.48 | -0.268 ± 0.25 |
| CG C61G | -0.0835 ± 0.46 | -0.191 ± 0.019 |
| CG C61A | 0.321 ± 0.14 | 0.0593 ± 0.091 |
| CG C61T | 0.151 ± 0.41 | -0.122 ± 0.029 |
| CG C98G | -0.135 ± 0.48 | -0.464 ± 0.23 |
| CG C98T | -0.0503 ± 0.61 | -0.178 ± 0.14 |
| CG C98A | -0.338 ± 1.2 | -0.0969 ± 0.46 |
| CG C61A A62C | 0.514 ± 0.034 | 0.443 ± 0.054 |
| CG C14G A15T | -1.58 ± 0.72 | -0.642 ± 0.37 |
| TG G24A T30A A70C T76A T84A C87A | 0.298 ± 0.13 | -0.172 ± 0.16 |
